Common to all, as to details: protein: ivt; tags: N-terminal FLAG; label: 5'-biotin
For data set [1], the target named is T1, hTERT Q169A (Homo sapiens, UniProt O14746 1-1132, Q169A). Nature of the data set: pull-down; stronger than WT; 5'-biotin primers with RRL-made 35S-hTERT (no hTR), neutravidin bead pull-down; primer mix pre-incubated on ice 45-60 min; buffer, salt and pH not given (ref 28).
For data set [2], the target named is T2, hTERT Q169N (Homo sapiens, UniProt O14746 1-1132, Q169N). Nature of the data set: pull-down; 5'-biotin primers with RRL-made 35S-hTERT (no hTR), neutravidin bead pull-down; primer mix pre-incubated on ice 45-60 min; buffer, salt and pH not given (ref 28).
The target in data set [3] is hTERT WT (Homo sapiens, UniProt O14746 1-1132). The data set is described as above.
Data set [4] has as its target T3, hTERT Q169D (Homo sapiens, UniProt O14746 1-1132, Q169D). The data set is described as above.
In data set [5] the target is T1, hTERT Q169A. The data set is described as above.
For data set [6], the target named is T2, hTERT Q169N. As to the kind of experiment: pull-down; stronger than WT; 5'-biotin primers with RRL-made 35S-hTERT (no hTR), neutravidin bead pull-down; primer mix pre-incubated on ice 45-60 min; buffer, salt and pH not given (ref 28).
Data set [7] has as its target T3, hTERT Q169D. The data set is described as above.

T2 sequence (O14746 whole entry Q169N): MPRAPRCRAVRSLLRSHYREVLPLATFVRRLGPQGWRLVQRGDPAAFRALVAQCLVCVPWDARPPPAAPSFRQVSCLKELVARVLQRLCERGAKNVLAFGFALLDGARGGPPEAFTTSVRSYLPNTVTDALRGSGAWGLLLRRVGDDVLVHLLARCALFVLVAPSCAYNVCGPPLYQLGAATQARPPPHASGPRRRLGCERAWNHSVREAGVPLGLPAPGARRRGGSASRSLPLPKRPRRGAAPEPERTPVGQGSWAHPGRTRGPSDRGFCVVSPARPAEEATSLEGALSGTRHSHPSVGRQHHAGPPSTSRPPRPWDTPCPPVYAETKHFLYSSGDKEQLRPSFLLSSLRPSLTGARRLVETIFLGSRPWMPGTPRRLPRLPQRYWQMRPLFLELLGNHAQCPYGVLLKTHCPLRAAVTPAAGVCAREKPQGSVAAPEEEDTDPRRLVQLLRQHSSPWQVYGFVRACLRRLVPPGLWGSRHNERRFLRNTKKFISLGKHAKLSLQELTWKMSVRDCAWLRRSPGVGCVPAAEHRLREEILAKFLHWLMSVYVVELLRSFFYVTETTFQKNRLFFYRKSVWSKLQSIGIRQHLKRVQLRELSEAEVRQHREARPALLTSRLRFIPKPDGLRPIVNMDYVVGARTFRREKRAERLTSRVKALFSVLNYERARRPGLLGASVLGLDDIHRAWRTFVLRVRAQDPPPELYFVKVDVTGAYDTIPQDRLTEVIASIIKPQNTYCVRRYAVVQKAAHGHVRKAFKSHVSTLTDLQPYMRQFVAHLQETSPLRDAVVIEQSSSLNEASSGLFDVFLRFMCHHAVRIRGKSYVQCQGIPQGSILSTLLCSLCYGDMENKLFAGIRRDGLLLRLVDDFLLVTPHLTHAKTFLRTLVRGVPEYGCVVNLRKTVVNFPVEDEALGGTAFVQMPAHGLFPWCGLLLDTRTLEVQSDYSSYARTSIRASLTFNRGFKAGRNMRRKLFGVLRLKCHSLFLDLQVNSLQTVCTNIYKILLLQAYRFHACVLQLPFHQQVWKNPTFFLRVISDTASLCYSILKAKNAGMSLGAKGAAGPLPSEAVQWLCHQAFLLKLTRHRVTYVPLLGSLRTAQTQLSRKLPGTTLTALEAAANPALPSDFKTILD
T3 sequence (O14746 whole entry Q169D): as the sequence (O14746 whole entry Q169N) above, with N169D counted along it
T1 sequence (O14746 whole entry Q169A): as the sequence (O14746 whole entry Q169N) above, with N169A counted along it
Chain of hTERT WT (O14746 whole entry): as the sequence (O14746 whole entry Q169N) above, with N169Q counted along it

B1: bio-TELO24 (ssDNA)
DNA: TTAGGGTTAGGGTTAGGGTTAGGG
Turning to B1, in data set [1], the binding result was “binds”.

B2: bio-Tetrahymena (ssDNA)
DNA: TTGGGGTTGGGGTTGGGG
Consider B2, for which the binding result in data set [2], in data set [3], in data set [4] and in data set [5] was “binds” in each case.

B3: bio-TELO12 (ssDNA)
DNA: TTAGGGTTAGGG
For B3, the binding result in data set [6], in data set [7] and in data set [1] was “binds” each time.

B4: bio-TELO6 (ssDNA)
DNA: TTAGGG
On to B4, for which the binding result in data set [6], in data set [7] and in data set [1] was “binds” throughout.

(Values after publication PMC2744565, “Human Telomerase Reverse Transcriptase (hTERT) Q169 Is Essential for Telomerase Function In Vitro and In Vivo”.)
